# Measured values taken from US20070292490A1.
# Experiments:
# [1] = molecular target: lettuce-produced recombinant human tissue factor, full length (263 aa), purified and lipidated (human) (UniProt P13726); assay: cell-based or functional assay
# [2] = molecular target: E. coli produced recombinant human tissue factor rhTF243, purified and lipidated (human) (UniProt P13726); assay: cell-based or functional assay
binder,measurement,setting,value
"Sunol-cH36 (antibody, from another filing, V domains shown) VH: EIQLQQSGPELVKPGASVQVSCKTSGYSFTDYNVYWVRQSHGKSLEWIGYIDPYNGITIYDQNFKGKATLTVDKSSTTAFMHLNSLTSDDSAVYFCARDVTTALDFWGQGTTLTVSS VL: DIQMTQSPASQSASLGESVTITCLASQTIDTWLAWYQQKPGKSPQLLIYAATNLADGVPSRFSGSGSGTKFSFKISSLQAEDFVNYYCQQVYSSPFTFGAGTKLELK","clot time in prothrombin time (PT) assay, human plasma, 10 nM lipidated rhTF, at antibody concentration of 500 nM",[1],42 s
same,"clot time in prothrombin time (PT) assay, human plasma, 10 nM lipidated rhTF, without antibody (0 nM)",[1],25 s
same,"clot time in prothrombin time (PT) assay, human plasma, 10 nM lipidated rhTF, at antibody concentration of 500 nM",[2],48 s
same,"clot time in prothrombin time (PT) assay, human plasma, 10 nM lipidated rhTF, without antibody (0 nM)",[2],25 s
